Data on 131 substances can be found in the supplement of paper PMC12042874.

± gives the uncertainty stated by the source.

The nature of the data set: amyloid nucleation score (Sup35N fusion, yeast selection) (log enrichment); library NNK3; higher = more nucleation; inactive = no reads after selection. The method, boiled down: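 The nucleation score is the log enrichment of output over input reads, calculated with DiMSum and centred on the mode score of non-aggregating sequences. Sequences with under 100 input reads were excluded. Reads came from Illumina sequencing of plasmid inserts from psi-negative yeast expressing Sup35N fused to peptides of 20 random codons, induced 24 hours with 100 μM copper sulfate and grown 7 days at 30°C without adenine and uracil.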

In the case of SSFNFTSIVLHIANLLHFFL, the amyloid nucleation score result is “inactive”.

Regarding QTVKVISPYPTMLTLCD, the amyloid nucleation score entry is “inactive”.

For NNRDDK, the amyloid nucleation score result was “inactive”.

QQFVTFVIFKYTVSVAMGAG: the amyloid nucleation score is -0.478 ± 0.88.

For CEIRSCGENFNATSRGRPGI, the amyloid nucleation score result is “inactive”.

As for IVIRTSSDTNVRAAVQLRMN, the amyloid nucleation score entry was “inactive”.

With GLFESERIYMWAYHFR, the amyloid nucleation score entry is “inactive”.

For FFVRH, the amyloid nucleation score entry is “inactive”.

Turning to DYIRHSFHCVLILSDKSHFS, the amyloid nucleation score result is “inactive”.

On to IVDASGQRAMGSDFIHVLHR, for which the amyloid nucleation score entry was “inactive”.

As to PSYEAASK, the amyloid nucleation score entry is “inactive”.

For WYAKCCKV, the amyloid nucleation score entry is “inactive”.

TVLGM gave an amyloid nucleation score of 0.699 ± 0.17.

As to KFPFSGPSRMTRRVMQRALL, the amyloid nucleation score entry is “inactive”.

In the case of EQRLSSGRWVS, the amyloid nucleation score entry is “inactive”.

As to GCVRGCTATWRMLCAGSKCC, the amyloid nucleation score stood at 0.71 ± 0.33.

For the substance VQWAEVAEMKGWGVANAWW, the amyloid nucleation score entry was “inactive”.

With YASYGSKGGITTLRRIISGS, the amyloid nucleation score result is “inactive”.

On to YHDFLYIEGWQMSETNSFEC, for which the amyloid nucleation score result was “inactive”.

SSKCWSTSCFFKGKSLSSLG: the amyloid nucleation score result is “inactive”.

With LPRTYRKALVPNVVVFSYLT, the amyloid nucleation score entry is “inactive”.

NFVDVRIKFTLTADLGHNSG came in with an amyloid nucleation score of 0.756 ± 0.21.

Substance GCIIGCQLDKYGPAMPSARE gave an amyloid nucleation score of 0.632 ± 0.3.

Turning to YWGIVVILSGDLRGYDH, the amyloid nucleation score result was “inactive”.

Regarding KQVKMGVA, the amyloid nucleation score entry was “inactive”.

With GKKLDMYHIRHSRW, the amyloid nucleation score entry was “inactive”.

VLFNSPTRGVHLLQTGSRQS: the amyloid nucleation score result is “inactive”.

TVFSDFSGSKEMTVTIRRWV: the amyloid nucleation score entry is “inactive”.

As for QYFSWKIRSGNLVYAF, the amyloid nucleation score entry is “inactive”.

In the case of YTPVIKCSYFTSIIGWAGPA, the amyloid nucleation score entry is “inactive”.

Turning to VFTFRWHVWRDWLMSEHCDK, the amyloid nucleation score was -0.296 ± 0.55.

Regarding VTKPFTIKGTI, the amyloid nucleation score entry was “inactive”.

Turning to CWAYF, the amyloid nucleation score result is “inactive”.

As for NEMQQYSHAPSPSVVWNAGF, the amyloid nucleation score result is “inactive”.

Consider GMFMCMKMVFFLKWYINLYF, for which the amyloid nucleation score result is “inactive”.

As for SESMCVIVSRIIWCGKVSNV, the amyloid nucleation score entry was “inactive”.

For the substance THKVWFKCVDAYNLAYVNSI, the amyloid nucleation score entry was “inactive”.

For the substance RPVVWYISRTSVVLDCAWGS, the amyloid nucleation score result is “inactive”.

Consider RNIELSAPLFWSAAASDVVK, for which the amyloid nucleation score entry is “inactive”.

Regarding FISHRARWISDESYIICHFV, the amyloid nucleation score was -0.067 ± 1.1.

Turning to RKNAVCICSNL, the amyloid nucleation score entry was “inactive”.

As to GLVSGGVFMMADMSRILKGK, the amyloid nucleation score entry was “inactive”.

For the substance RRNDRYVCFAMMSRRSGVYL, the amyloid nucleation score result is “inactive”.

As to TDLGSVGGW, the amyloid nucleation score was -0.206 ± 1.5.

With SRQLQPYYSVFRCLVRGSIK, the amyloid nucleation score entry was “inactive”.

Consider DALRL, for which the amyloid nucleation score entry was “inactive”.

For QSASFRNGFKLLLMTS, the amyloid nucleation score result is “inactive”.

SCMSYDLRQL: the amyloid nucleation score entry was “inactive”.

With IYRLFSARDDIVKDWRR, the amyloid nucleation score result was “inactive”.

As to TVLWFSC, the amyloid nucleation score result is “inactive”.

As to GFTVMDPIV, the amyloid nucleation score result was “inactive”.

For TLGLRADRYKLLYFFEGFLI, the amyloid nucleation score entry is “inactive”.

In turn, SDTSSCCYTCVYISYVDHFF had an amyloid nucleation score of 2.41 ± 0.052.

With MLVAGPLGQE, the amyloid nucleation score result is “inactive”.

Regarding IPRYVWNVPRWYVYQFVCGA, the amyloid nucleation score was 0.27 ± 0.54.

As to EWIGVVNVRNDPPSGC, the amyloid nucleation score result is “inactive”.

With CDSTPYFLMGSWLG, the amyloid nucleation score result is “inactive”.

As for HHYCRGSICESVSQMYWISW, the amyloid nucleation score result was “inactive”.

On to FIVSNYKSFVLYHLLNRMLV, for which the amyloid nucleation score result is “inactive”.

For the substance ARYETRMYKFKNTPGVAERR, the amyloid nucleation score entry was “inactive”.

As to FPVSMENFKYA, the amyloid nucleation score result is “inactive”.

On to VHFYWS, for which the amyloid nucleation score entry was “inactive”.

Take SSFQSYYTSSDMTEF: the amyloid nucleation score entry was “inactive”.

As to GYMRSLYIRYYSRRRFRCI, the amyloid nucleation score entry was “inactive”.

As to MHAMCQLWCSS, the amyloid nucleation score is -0.323 ± 1.4.

With VCWMSVRDNNNGHFLIYSSD, the amyloid nucleation score entry was “inactive”.

Consider HWHMIMIKCQLEFTKEVIRA, for which the amyloid nucleation score result is “inactive”.

CHCIYNQCVGFSVCGCRGFG displayed an amyloid nucleation score of 2.35 ± 0.058.

For the substance WKYRMTQRPQMVNWNVLRYE, the amyloid nucleation score result is “inactive”.

YFIVSWFFQNCFR came in with an amyloid nucleation score of 1.19 ± 0.12.

For HSRTYFQSISGWISCLMSTL, the amyloid nucleation score is 1.13 ± 0.11.

With PLFGRCHRWGVTMQYSLLIG, the amyloid nucleation score result was “inactive”.

Turning to TGLLLIRIKGH, the amyloid nucleation score result was “inactive”.

Consider HASMQFWKVDNSFNALMRLG, for which the amyloid nucleation score was determined as 0.398 ± 0.18.

In the case of GLCPYSIQFFGGRSDHNW, the amyloid nucleation score was 1.24 ± 0.15.

Consider YLYNRSMRVPLMSRKLFGGD, for which the amyloid nucleation score result was “inactive”.

Consider TLLHLLKLSGLVSKCSTMVL, for which the amyloid nucleation score entry was “inactive”.

Consider LYSVLGVVSTDSRRDAEWCQ, for which the amyloid nucleation score entry is “inactive”.

On to ICWLVMEVLG, for which the amyloid nucleation score entry is “inactive”.

As for LHASMLLLRNNRSRS, the amyloid nucleation score entry is “inactive”.

AVFGCFWFAMGLSFLYAKSL: the amyloid nucleation score entry is “inactive”.

With ARLSEAVLGNVSDIGRVCNL, the amyloid nucleation score entry was “inactive”.

LWKVRCSSGHGEIYAYCDMA: the amyloid nucleation score entry was “inactive”.

As for NSKGMLCWLTA, the amyloid nucleation score entry was “inactive”.

In the case of FFASSIYQRALYTVILSSPT, the amyloid nucleation score entry is “inactive”.

In the case of WFISTFDLDRYKFASCSKAW, the amyloid nucleation score entry was “inactive”.

Consider AYCGACFNLSAYTSKCLELM, for which the amyloid nucleation score entry is “inactive”.

On to QPVICNIRSSRCV, for which the amyloid nucleation score entry is “inactive”.

For RLATREDHAHLLDHACLVG, the amyloid nucleation score result is “inactive”.

For the substance NSSEGDDY, the amyloid nucleation score result is “inactive”.

On to LRTAEDFETS, for which the amyloid nucleation score is -0.416 ± 1.5.

For STCKKNWNIARRI, the amyloid nucleation score result was “inactive”.

Regarding DGAEDCRS, the amyloid nucleation score is -1.03 ± 2.5.

Substance AYKMTFWVQNYVFVYSFLFV gave an amyloid nucleation score of 0.419 ± 0.23.

In turn, WLSGACEPPF returned an amyloid nucleation score of 0.718 ± 0.28.

On to WCNMVRVHMF, for which the amyloid nucleation score entry is “inactive”.

Take VKDNFRFSLNRPMKRHVVWA: the amyloid nucleation score result was “inactive”.

With GSGHAVIEVIRRFCSEDDNK, the amyloid nucleation score result was “inactive”.

Take SGIIWQYNARLE: the amyloid nucleation score result was “inactive”.

In the case of YLWRQYYALFCYCFWNLKGP, the amyloid nucleation score result was “inactive”.

With PYPESVFQWFEYIPFYCSVR, the amyloid nucleation score result is “inactive”.

YRVWTVYRVYILAGTKNIRS: the amyloid nucleation score result was “inactive”.

LIPASLKADRQCAHSRYSR: the amyloid nucleation score entry is “inactive”.

Consider FVCKMVMIRRGDTWKVSKVV, for which the amyloid nucleation score result is “inactive”.

For the substance NLSVAMRLICVTLFLVLLGI, the amyloid nucleation score result is “inactive”.

Regarding LNGSAHYRGCCLKRRTICWM, the amyloid nucleation score entry is “inactive”.

For the substance EAYDGKSSICSRCS, the amyloid nucleation score result was “inactive”.

As for VRLVAMCWGHLDKNRALRRG, the amyloid nucleation score entry was “inactive”.

For the substance KYTVEVNFLAFLRHIYCTSG, the amyloid nucleation score entry is “inactive”.

For the substance IIRALARFLVNVGV, the amyloid nucleation score entry was “inactive”.

TNNCCNLLCMIQNPESCSFA registered an amyloid nucleation score of 3.12 ± 0.065.

For the substance VSRHKFFRHSCAN, the amyloid nucleation score entry is “inactive”.

For SEVVIWFAWYMSLLNPGLYA, the amyloid nucleation score entry was “inactive”.

Substance NLVSNMVSNAKVDVVVWHVQ showed an amyloid nucleation score of 0.209 ± 0.54.

Take NASCGDNVLLYLFKMTFCLG: the amyloid nucleation score worked out at 0.139 ± 0.25.

On to FHNCLGTNKNGVLLNGMVWN, for which the amyloid nucleation score result was “inactive”.

Turning to VHFCWNADVSLHITLVGINS, the amyloid nucleation score entry is “inactive”.

For the substance PFPGRTLKWNLYTSQFFMAG, the amyloid nucleation score result is “inactive”.

Regarding FLFVCLSLIALTGADSLVQA, the amyloid nucleation score result was “inactive”.

Take GCHFLH: the amyloid nucleation score entry is “inactive”.

For PLSFIKRRFRRLAGLSRSSA, the amyloid nucleation score entry is “inactive”.

The substance GLMESSCRMGLLNPIQTFTQ registered an amyloid nucleation score of 0.036 ± 0.98.

For SASLLN, the amyloid nucleation score entry was “inactive”.

As for YPPTGMIWIRILVSV, the amyloid nucleation score result is “inactive”.

Turning to AACHINNICKSLVL, the amyloid nucleation score result is “inactive”.

With SASEKTDSNVVEFCVGRCI, the amyloid nucleation score result was “inactive”.

Turning to MSMLYSGWAYELTLHYMRPA, the amyloid nucleation score entry is “inactive”.

On to VGTFWGFTIPSWYSVVVEVC, for which the amyloid nucleation score entry is “inactive”.

For LFAIDNWVVKDSLVVWCEGR, the amyloid nucleation score result was “inactive”.

As to MFDIVNKTSELL, the amyloid nucleation score entry was “inactive”.

FCFLLKALTYHLS showed an amyloid nucleation score of -0.067 ± 0.75.
